Results as given in patent US20250197505A1 (DREN BIO, published 2025).
One block for each binder: values may come before it.

How the values were obtained:
[1] = molecular target: T1, human CD94 expressed on cells (human primary NK cells in PBMCs; HEK cells expressing human CD94) (human, UniProt Q13241 1-179); assay: cell-based or functional assay
T1 sequence (looked up): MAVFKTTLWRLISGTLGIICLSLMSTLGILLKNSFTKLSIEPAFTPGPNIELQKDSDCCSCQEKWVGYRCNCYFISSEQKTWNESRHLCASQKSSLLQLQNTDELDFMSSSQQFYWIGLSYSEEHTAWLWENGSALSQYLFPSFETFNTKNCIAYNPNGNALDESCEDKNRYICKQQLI

[2] = molecular target: T2, cynomolgus CD94 expressed on HEK293 cells (cynomolgus monkey, UniProt Q68VD4 1-179); assay: flow cytometry, hybridoma supernatant on cynomolgus CD94-expressing HEK293 cells
T2 construct: also called cyno-CD94; cynomolgus monkey CD94
T2 sequence: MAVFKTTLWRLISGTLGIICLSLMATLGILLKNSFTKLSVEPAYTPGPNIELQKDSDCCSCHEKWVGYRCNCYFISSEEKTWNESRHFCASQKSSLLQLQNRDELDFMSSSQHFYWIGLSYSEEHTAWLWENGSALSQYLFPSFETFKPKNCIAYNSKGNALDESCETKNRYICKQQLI
Text: (§1) Anti-CD94 hybridoma supernatants were screened on cynomolgus CD94-expressing HEK293 cells by flow cytometry for cross-reactivity to cynomolgus CD94. HP-3D9 is a commercial anti-CD94 antibody that was used as a negative control. Mouse IgG1, IgG2a, IgG2b and IgG3 were used as negative controls. […] Commercially available anti-CD94 antibodies were used to test cynomolgus cross-reactivity. 18H3 was used as a positive control. The MFI of each antibody was normalized to the MFI of its respective isotype.
(§2) Cynomolgus CD94-expressing HEK293 cells were seeded in 96-well plates at a density of 100,000 cells per well, incubated with cell viability dye (Thermo Fisher) for 30 minutes on ice and protected from light. The cells were washed once with FACS buffer (PBS with 2% IgG low FBS). Hybridoma supernatants, anti-CD94 antibodies and isotype controls were incubated with cells for 30 minutes on ice and protected from light. […] After incubation, the cells received a final wash in FACS buffer before quantification on the Cytoflex (Beckman Coulter). All data acquisition and fluorescence compensation were performed using CytoFlex (Beckman Coulter, Atlanta, GA). […] CD94 expression was then quantified on this population. […]

[3] = molecular target: T1, human CD94 expressed on cells (human …); assay: flow cytometry titration on CD3-CD56+ NK cells in healthy donor PBMCs; 'Affinity on Human NK Cells'; the filing derives these affinities as EC50 of titration curves (the 2.6nM of 18H3 is labelled EC50 in FIG. 1)
Procedure: Healthy donor PBMCs were seeded in 96 well plates at a density of 100,000 cells per well, incubated with human Fc block (Biolegend) and cell viability dye (Thermo Fisher) for 30 minutes on ice and protected from light. The cells were washed once with FACS buffer (PBS with 2% IgG low FBS). anti-CD94 antibodies at concentrations of 100 nM to 0.046 nM, 1:3-fold dilutions, were incubated with cells for 30 minutes on ice and protected from light. The cells were then washed and incubated with goat IgG anti-mouse Fey specific AF647 secondary antibody or goat (Fab)2 fragment anti-human Fey specific AF647 secondary antibody (Jackson immuno research), anti-CD3 pacific blue-labelled and anti-CD56 FITC-labelled antibodies (Biolegend) for 30 minutes on ice and protected from light. After incubation, the cells received a final wash in FACS buffer before quantification on the Cytoflex (Beckman Coulter). All data acquisition and fluorescence compensation were performed using CytoFlex (Beckman Coulter, Atlanta, GA). Data analysis was performed using FlowJo software. NK cells were identified through gating on lymphocytes on the forward and side scatter, followed by doublet and dead cell exclusion, and gated on the CD3−CD56+ population. CD94 expression was then quantified on the CD3−CD56+NK cell population. […]
The affinity of the antibody clones was also assessed by flow cytometry analysis.

[4] = molecular target: T1, human CD94 expressed on cells (human …); assay: HLA-E tetramer blocking assay, flow cytometry on CD3-CD56+ NK cells in healthy donor PBMCs; antibody at one saturating concentration, blocked ligand PE-labelled HLA-E tetramer; percent blocking = 100-((percent HLA-E positive with antibody)/(percent HLA-E positive with isotype)*100)
Procedure: Healthy donor PBMCs were incubated with anti-CD94 antibodies. PE labeled HLA-E tetramer was then incubated with the cell and antibody mixture, and detected using flow cytometry. For HP-3B1, 131412, 12K45, DX22, 1M4 and 1E4, 2.5 μl of HLA-E tetramer reagent was used, while 5 μl was used for 18H3 and HP-3D9. Saturating concentrations of each antibody was used in this assay. The percent blocking was calculated as 100−((percent HLA-E positive for anti-CD94 antibody)/(percent HLA-E positive for isotype)*100).
Healthy donor PBMCs were seeded in 96-well plates at a density of 100,000 cells per well, incubated with human Fc block (Biolegend) and cell viability dye (Thermo Fisher) for 30 minutes on ice and protected from light. The cells were washed once with FACS buffer (PBS with 2% IgG low FBS). anti-CD94 antibodies at EC80 concentrations were incubated with cells for 30 minutes on ice and protected from light. After incubation with the anti-CD94 antibodies, the cells were washed and incubated with HLA-E tetramer PE (Creative Biolabs), anti-CD3 pacific blue-labelled, and anti-CD56 FITC-labelled antibodies (Biolegend) for 30 minutes on ice and protected from light. The cells then received a final wash in FACS buffer before quantification on the Cytoflex (Beckman Coulter). All data acquisition and fluorescence compensation were performed using CytoFlex (Beckman Coulter, Atlanta, GA). Data analysis was performed using FlowJo software. NK cells were identified through gating on lymphocytes on the forward and side scatter, followed by doublet and dead cell exclusion, and gated on the CD3−CD56+ population. HLA-E expression was then quantified on the CD3−CD56+NK cell population. Percent blocking was calculated as 100−((percent HLA-E positive for anti-CD94 antibody)/(percent HLA-E positive for isotype)*100).

[5] = molecular target: T2, cynomolgus CD94 expressed on HEK293 …; assay: flow cytometry, cynomolgus CD94-expressing HEK293 cells
Text: as §1, §2

percent decrease in MFI (antibody internalization assay), comparing 0.5 hours to 24 hours at 37° C. [1]: 18%
binding result [2]: binds
EC50 [3]: 75 nM
HLA-E Blocking [4]: 0%
B1: anti-CD94 antibody clone 1E4 (antibody, V domains shown)
VH: QVTLRESGPALVKPTQTLTLTCTFSGFSLSTSDLCVSWIRQPPGKALEWLALIDWNDDKYYSTSLQTRLTISKDTSKNQVVLTMTNMDPVDTATYYCARTIAAAGPYDAFDIWGQGTMVTVSS
VL: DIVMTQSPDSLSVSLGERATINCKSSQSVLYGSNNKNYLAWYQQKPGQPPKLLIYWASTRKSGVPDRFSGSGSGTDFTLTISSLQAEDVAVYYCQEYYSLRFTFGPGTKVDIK
notes: also called fucosylated 1E4

percent decrease in MFI (antibody internalization assay), comparing 0.5 hours to 24 hours at 37° C. [1]: 32%
binding result [5]: binds
EC50 [3]: 7 nM
HLA-E Blocking [4]: 0%
B2: anti-CD94 antibody clone 1M4 (antibody, V domains shown)
VH: QLVESGGGLVQPGGSLRLACAASGFTFSNYAMNWVRQAPGKGLEWVSVISGSGDTTYCADSVKGRFTISRDNSKNTLHLQLNSLRAEDTAVYYCAKNCYGSGSYYNHFDYWGQGTLVTVSS
VL: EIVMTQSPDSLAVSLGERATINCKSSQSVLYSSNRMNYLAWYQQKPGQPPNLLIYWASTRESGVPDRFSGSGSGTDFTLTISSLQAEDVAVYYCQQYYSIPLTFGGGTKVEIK
